# Measurements: US20260209293A1 (Novo Nordisk, published 2026)
# *1 amine or outer side, *2 acyl side, *3 side chain or, on linkers, in order; H or OH if unused. The star is where a group is joined. C20 diacid = O=C(O)CCCCCCCCCCCCCCCCCCC(=O)*; C18 diacid = O=C(O)CCCCCCCCCCCCCCCCC(=O)*; γGlu = O=C(O)[C@H](CCC(=O)[*:2])N[*:1]
# T1: human amylin-3(a) receptor (human, UniProt P30988 25-474; O60896 24-148)
# T1 sequence (looked up) 1: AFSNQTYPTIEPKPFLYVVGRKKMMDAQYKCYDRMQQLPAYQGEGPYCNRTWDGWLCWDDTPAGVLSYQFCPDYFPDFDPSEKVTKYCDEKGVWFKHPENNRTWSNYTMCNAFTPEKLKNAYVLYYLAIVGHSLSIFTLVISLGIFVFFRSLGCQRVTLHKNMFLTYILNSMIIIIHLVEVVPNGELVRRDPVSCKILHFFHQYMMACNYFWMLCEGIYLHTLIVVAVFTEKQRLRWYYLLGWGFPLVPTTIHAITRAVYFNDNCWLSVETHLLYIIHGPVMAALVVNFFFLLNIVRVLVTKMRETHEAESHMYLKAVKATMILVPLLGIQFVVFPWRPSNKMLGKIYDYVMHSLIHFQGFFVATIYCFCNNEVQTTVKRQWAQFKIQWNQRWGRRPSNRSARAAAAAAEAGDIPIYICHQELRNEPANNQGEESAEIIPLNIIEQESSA
# T1 sequence (looked up) 2: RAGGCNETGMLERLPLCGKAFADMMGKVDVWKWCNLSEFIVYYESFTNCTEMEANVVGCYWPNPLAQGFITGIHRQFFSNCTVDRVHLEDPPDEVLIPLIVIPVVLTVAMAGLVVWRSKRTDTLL
# T2: human calcitonin receptor (a) (human, UniProt P30988 25-474)
# T2 sequence (looked up): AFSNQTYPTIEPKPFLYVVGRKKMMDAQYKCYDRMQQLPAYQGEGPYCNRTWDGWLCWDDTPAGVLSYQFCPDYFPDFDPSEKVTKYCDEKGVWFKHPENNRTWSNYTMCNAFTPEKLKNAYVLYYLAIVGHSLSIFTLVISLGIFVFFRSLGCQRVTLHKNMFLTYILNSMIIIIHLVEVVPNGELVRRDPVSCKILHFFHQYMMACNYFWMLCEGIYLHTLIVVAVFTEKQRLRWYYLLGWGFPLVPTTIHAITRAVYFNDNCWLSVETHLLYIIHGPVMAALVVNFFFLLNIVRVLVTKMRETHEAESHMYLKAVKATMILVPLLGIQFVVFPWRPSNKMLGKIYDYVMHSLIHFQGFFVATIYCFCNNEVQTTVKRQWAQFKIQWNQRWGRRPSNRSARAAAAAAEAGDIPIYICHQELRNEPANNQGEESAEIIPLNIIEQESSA
# Columns and labels:
# [1] = biological target: T1, human amylin-3(a) receptor; test: cell-based or functional assay
# [2] = biological target: T2, human calcitonin receptor (a); test: cell-based or functional assay
"hAmyR3 potency, EC50 (pM); CRE-luciferase reporter in BHK cells [1]","hCalcR potency, EC50 (pM); CRE-luciferase reporter in BHK cells [2]",Binder
2.96 pM,3.22 pM,{C18 diacid-γGlu}-ASHLSTAQTQRLAEFLHHSSDPFGAIPSSTDVGPDTY-NH2 (SMILES CC[C@H](C)[C@H](NC(=O)[C@H](C)NC(=O)CNC(=O)[C@H](Cc1ccccc1)NC(=O)[C@@H]1CCCN1C(=O)[C@H](CC(=O)O)NC(=O)[C@H](CO)NC(=O)[C@H](CO)NC(=O)[C@H](Cc1c[nH]cn1)NC(=O)[C@H](Cc1c[nH]cn1)NC(=O)[C@H](CC(C)C)NC(=O)[C@H](Cc1ccccc1)NC(=O)[C@H](CCC(=O)O)NC(=O)[C@H](C)NC(=O)[C@H](CC(C)C)NC(=O)[C@H](CCCNC(=N)N)NC(=O)[C@H](CCC(N)=O)NC(=O)[C@@H](NC(=O)[C@H](CCC(N)=O)NC(=O)[C@H](C)NC(=O)[C@@H](NC(=O)[C@H](CO)NC(=O)[C@H](CC(C)C)NC(=O)[C@H](Cc1c[nH]cn1)NC(=O)[C@H](CO)NC(=O)[C@H](C)NC(=O)CC[C@H](NC(=O)CCCCCCCCCCCCCCCCC(=O)O)C(=O)O)[C@@H](C)O)[C@@H](C)O)C(=O)N1CCC[C@H]1C(=O)N[C@@H](CO)C(=O)N[C@@H](CO)C(=O)N[C@H](C(=O)N[C@@H](CC(=O)O)C(=O)N[C@H](C(=O)NCC(=O)N1CCC[C@H]1C(=O)N[C@@H](CC(=O)O)C(=O)N[C@H](C(=O)N[C@@H](Cc1ccc(O)cc1)C(N)=O)[C@@H](C)O)C(C)C)[C@@H](C)O)
1.6 pM,2.26 pM,{C18 diacid-γGlu}-ASHLSTLQTQRLAEFLHHFGPILPPTDVGSETP-NH2 (SMILES CC[C@H](C)[C@H](NC(=O)[C@@H]1CCCN1C(=O)CNC(=O)[C@H](Cc1ccccc1)NC(=O)[C@H](Cc1c[nH]cn1)NC(=O)[C@H](Cc1c[nH]cn1)NC(=O)[C@H](CC(C)C)NC(=O)[C@H](Cc1ccccc1)NC(=O)[C@H](CCC(=O)O)NC(=O)[C@H](C)NC(=O)[C@H](CC(C)C)NC(=O)[C@H](CCCNC(=N)N)NC(=O)[C@H](CCC(N)=O)NC(=O)[C@@H](NC(=O)[C@H](CCC(N)=O)NC(=O)[C@H](CC(C)C)NC(=O)[C@@H](NC(=O)[C@H](CO)NC(=O)[C@H](CC(C)C)NC(=O)[C@H](Cc1c[nH]cn1)NC(=O)[C@H](CO)NC(=O)[C@H](C)NC(=O)CC[C@H](NC(=O)CCCCCCCCCCCCCCCCC(=O)O)C(=O)O)[C@@H](C)O)[C@@H](C)O)C(=O)N[C@@H](CC(C)C)C(=O)N1CCC[C@H]1C(=O)N1CCC[C@H]1C(=O)N[C@H](C(=O)N[C@@H](CC(=O)O)C(=O)N[C@H](C(=O)NCC(=O)N[C@@H](CO)C(=O)N[C@@H](CCC(=O)O)C(=O)N[C@H](C(=O)N1CCC[C@H]1C(N)=O)[C@@H](C)O)C(C)C)[C@@H](C)O)
1.09 pM,1.49 pM,{C20 diacid-γGlu}-ASHLSTAQTARLAEFLHHFGPILPPTDVGSETP-NH2 (SMILES CC[C@H](C)[C@H](NC(=O)[C@@H]1CCCN1C(=O)CNC(=O)[C@H](Cc1ccccc1)NC(=O)[C@H](Cc1c[nH]cn1)NC(=O)[C@H](Cc1c[nH]cn1)NC(=O)[C@H](CC(C)C)NC(=O)[C@H](Cc1ccccc1)NC(=O)[C@H](CCC(=O)O)NC(=O)[C@H](C)NC(=O)[C@H](CC(C)C)NC(=O)[C@H](CCCNC(=N)N)NC(=O)[C@H](C)NC(=O)[C@@H](NC(=O)[C@H](CCC(N)=O)NC(=O)[C@H](C)NC(=O)[C@@H](NC(=O)[C@H](CO)NC(=O)[C@H](CC(C)C)NC(=O)[C@H](Cc1c[nH]cn1)NC(=O)[C@H](CO)NC(=O)[C@H](C)NC(=O)CC[C@H](NC(=O)CCCCCCCCCCCCCCCCCCC(=O)O)C(=O)O)[C@@H](C)O)[C@@H](C)O)C(=O)N[C@@H](CC(C)C)C(=O)N1CCC[C@H]1C(=O)N1CCC[C@H]1C(=O)N[C@H](C(=O)N[C@@H](CC(=O)O)C(=O)N[C@H](C(=O)NCC(=O)N[C@@H](CO)C(=O)N[C@@H](CCC(=O)O)C(=O)N[C@H](C(=O)N1CCC[C@H]1C(N)=O)[C@@H](C)O)C(C)C)[C@@H](C)O)
